Test results from FireProtDB (doi:10.1016/s0006-3495(99)76955-9).

B1: Azurin, P00282 (parent)
chain: MLRKLAAVSLLSLLSAPLLAAECSVDIQGNDQMQFNTNAITVDKSCKQFTVNLSHPGNLPKNVMGHNWVLSTAADMQGVVTDGMASGLDKDYLKPDDSRVIAHTKLIGSGEKDSVTFDVSKLKEGEQYMFFCTFPGHSALMKGTLTLK

Variants of: B1
Conditions: Pseudomonas aeruginosa (strain ATCC 15692 / DSM 22644 / CIP 104116 / JCM 14847 / LMG 12228 / 1C / PRS 101 / PAO1); pH 7.03; 20 °C; Thermal; DSC; phosphate buffer 10 mM; sodium chloride 40 microM; reversible: no; structure 5AZU; whole UniProt chain shown

What does the source list for C23A C46A?
unfolding enthalpy (calorimetric): 16 kcal/mol; unfolding free energy: 7.79 kcal/mol
